The values that follow come from publication PMC11401910, “Dual client binding sites in the ATP-independent chaperone SurA” (Nature Communications, 2024).

For one assay, the system named is OmpX. The following applies: ~75 pM double-labelled OmpX, 30 μM SurA variant, 20 mM Tris-HCl, 0.1 M urea, 0.02% Tween-20, pH 8.0, ~21 °C; apo-OmpX ~0.85.
For another assay, the target named is T1, SurA-WT (Escherichia coli, UniProt P0ABZ6).
T1 construct: made in house; host or cells: E. coli BL21(DE3)
Type of assay: binding. The note with it: pH 8. How it is done: All NMR experiments were performed on a 950-MHz Bruker Ascend Avance III HD NMR spectrometer equipped with either a Bruker 3 mm TCI or 5 mm TXO triple-resonance cryogenically cooled probe. Peptide binding experiments were performed in 5 mM EDTA, 20 mM Tris-HCl, pH 8.0 with 5 % (v/v) D2O at 25 °C. Binding experiments using full-length OMP sequences also contained 0.8 M urea. Data was acquired for ~16 h with the exception of OMP-containing experiments which were acquired for ~5 h. […] (2D ^1H-^13C SOFAST-HMQC)[70]. […] Errors in the intensity ratios for each peak between two spectra were obtained by propagating the errors according to:1 δR=R*δX/X+δY/Y where δR is the error in the intensity ratio, |R| is the value of the intensity ratio, X and Y are the intensity values for the peak in the first and second spectrum, respectively, and δX and δY are the noise floor values for the first and second spectrum, respectively.
Z-scores for intensity ratio and CSP data were calculated using:3 Zi=xi−μ/σ where xi is the value for a particular peak, and µ and σ are the mean and standard deviation for all peaks, respectively.
For assignment of SurA-WT Ile and Met residues (43 in total) each residue was individually mutated (Supplementary Table 3), and the effect of the mutation assessed by methyl-TROSY NMR. Samples contained 5–70 µM SurA variant. […]

Another assay deals with SurA. The following applies: read-out: Kd, binding of full-length unfolded OmpX to SurA; cited from earlier work. From the text: (where Ar is an aromatic residue and X is any amino acid), or aromatic-enriched sequences containing an Ar-X-Ar-X-Pro motif. […] Both of these types of peak changes (shifts and/or broadening), can report on binding or conformational changes caused by binding at the location of the corresponding ^13CH3 probe[73],[74].

T1 sequence (P0ABZ6 other isoform, or with tags, fused parts or gaps): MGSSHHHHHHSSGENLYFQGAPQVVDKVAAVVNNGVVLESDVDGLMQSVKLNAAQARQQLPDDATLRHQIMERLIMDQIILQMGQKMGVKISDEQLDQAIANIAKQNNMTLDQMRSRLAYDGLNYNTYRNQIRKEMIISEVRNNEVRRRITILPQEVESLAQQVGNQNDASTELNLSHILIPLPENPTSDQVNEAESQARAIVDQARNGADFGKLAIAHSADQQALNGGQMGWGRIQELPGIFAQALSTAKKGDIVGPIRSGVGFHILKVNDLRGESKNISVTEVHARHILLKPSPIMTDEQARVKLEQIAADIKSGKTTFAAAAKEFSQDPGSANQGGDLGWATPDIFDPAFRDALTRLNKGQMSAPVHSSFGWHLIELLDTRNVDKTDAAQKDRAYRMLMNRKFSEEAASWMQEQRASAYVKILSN
Description for OmpX: Samples were measured at a volume of 100 μL in an 18 well sample chamber (81817, Ibidi) with the focal spot 50 μm above the cover glass on a custom-built confocal microscope (Supplementary Methods) at room temperature (~21 °C). […] Aged Trolox was prepared by adding 1 mM of Trolox to measurement buffer and incubating the sample overnight at room temperature on a rotary shaker to dissolve before being filtered using a 0.22 μm pore size membrane. Tween-20 (0.02% v/v) was added to prevent non-specific absorption to the glass slide.
The ptu files from the SymPhoTime64 software were converted into HDF5 data files using phconvert v0.9 (available at https://github.com/Photon-HDF5/phconvert). Each of these files was then merged to create one file for each condition. […] Firstly, the background was independently calculated for every 60 s period of measurement. […]
BVA[68] was used to assay for dynamics on the ms timescale occurring during bursts. This analysis compares the expected variance in Eraw based on shot noise against the measured variance in Eraw in each individual burst (si). […] To calculate si, we segmented each burst into consecutive windows of 5 photons, and calculated the standard deviation of all windows within the burst. […]

B1: SurA-core: SurA construct lacking both PPIase domains (residues 172-389 deleted) (protein)
chain: APQVVDKVAAVVNNGVVLESDVDGLMQSVKLNAAQARQQLPDDATLRHQIMERLIMDQIILQMGQKMGVKISDEQLDQAIANIAKQNNMTLDQMRSRLAYDGLNYNTYRNQIRKEMIISEVRNNEVRRRITILPQEVESLAQQVGNQNDASDAAQKDRAYRMLMNRKFSEEAASWMQEQRASAYVKILSN
modifications: left off: His6, N-terminal, state not stated
In the case of B1, in the assay with OmpX, the “Maximum of the raw FRET distribution (Eraw) of OmpX bound to SurA variant” value is ~ 0.45.

B2: OmpX: unfolded E. coli outer membrane protein OmpX, mature sequence residues 24-171 (protein)
chain: ATSTVTGGYAQSDAQGQMNKMGGFNLKYRYEEDNSPLGVIGSFTYTEKSRTASSGDYNKNQYYGITAGPAYRINDWASIYGVVGVGYGKFQTTEYPTYKHDTSDYGFSYGAGLQFNPMENVALDFSYEQSRIRSVDVGTWIAGVGYRF
B2: in the assay with SurA-WT, the “Interaction of unfolded OMP with SurA-WT domains by methyl-TROSY NMR, in words” value was “regions in the core and P1 domains directly interact with OmpX, while P2 is largely uninvolved in OmpX binding”. Also, the Kd at SurA was roughly 1000 nM.
